In patent publication US20200190501:

Biological target: T1, mini-cellulose-binding protein A (mCbpA), P38058
T1 chain: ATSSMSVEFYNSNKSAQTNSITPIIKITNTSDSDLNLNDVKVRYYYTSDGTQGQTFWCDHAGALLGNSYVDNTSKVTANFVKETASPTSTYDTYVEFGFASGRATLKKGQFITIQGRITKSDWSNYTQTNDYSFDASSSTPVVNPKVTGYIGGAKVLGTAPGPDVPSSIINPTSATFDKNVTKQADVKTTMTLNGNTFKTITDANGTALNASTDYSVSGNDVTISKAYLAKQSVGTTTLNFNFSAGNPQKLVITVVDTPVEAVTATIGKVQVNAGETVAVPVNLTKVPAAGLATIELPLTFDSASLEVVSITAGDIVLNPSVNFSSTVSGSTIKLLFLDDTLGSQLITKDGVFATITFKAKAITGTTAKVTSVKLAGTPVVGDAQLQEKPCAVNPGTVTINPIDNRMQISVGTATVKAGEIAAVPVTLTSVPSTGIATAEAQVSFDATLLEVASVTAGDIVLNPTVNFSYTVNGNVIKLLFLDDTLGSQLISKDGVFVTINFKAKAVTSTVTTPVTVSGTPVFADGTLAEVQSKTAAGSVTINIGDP

B1: dockerin-fused chimeric beta-agarase AgaB (AgaB-Doc) (protein)
chain: GDNSKFDSATDLPVEQEQEQETEQEGEPEESSEQDLVEEVDWKDIPVPADAGPNMKWEFQEISDNFEYEAPADNKGSEFLEKWDDFYHNAWAGPGLTEWKRDRSYVADGELKMWATRKPGSDKINMGCITSKTRVVYPVYIEARAKVMNSTLASDVWLLSADDTQEIDILEAYGADYSESAGKDHSYFSKKVHISHHVFIRDPFQDYQPKDAGSWFEDGTVWNKEFHRFGVYWRDPWHLEYYIDGVLVRTVSGKDIIDPKHFTNTTDPGNTEIDTRTGLNKEMDIIINTEDQTWRSSPASGLQSNTYTPTDNELSNIENNTFGVDWIRIYKPVEKVNKDGKVNAIDYAVLKSILLGTNTNVDLSVSDMNKDGKVNALDLAVLKKMLLS
- degradation activity using purified agar as a substrate: the degradation activity increased in the order of agarase, agarase-expansin, and agarase-expansin-mCbpA
